From PMC10621992 (PLOS Pathogens, 2023)

B1: IRF3-Flag, purified from HEK293 cells (natural protein, human, UniProt Q14653 1-427, looked up)
chain: MGTPKPRILPWLVSQLDLGQLEGVAWVNKSRTRFRIPWKHGLRQDAQQEDFGIFQAWAEATGAYVPGRDKPDLPTWKRNFRSALNRKEGLRLAEDRSKDPHDPHKIYEFVNSGVGDFSQPDTSPDTNGGGSTSDTQEDILDELLGNMVLAPLPDPGPPSLAVAPEPCPQPLRSPSLDNPTPFPNLGPSENPLKRLLVPGEEWEFEVTAFYRGRQVFQQTISCPEGLRLVGSEVGDRTLPGWPVTLPDPGMSLTDRGVMSYVRHVLSCLGGGLALWRAGQWLWAQRLGHCHTYWAVSEELLPNSGHGPDGEVPKDKEGGVFDLGPFIVDLITFTEGSGRSPRYALWFCVGESWPQDQPWTKRLVMVKVVPTCLRALVEMARVGGASSLENTVDLHISNSHPLSLTSDQYKAYLQDLVEGMDFQGPGES
B2: His-IRF3, prokaryotically expressed and purified (natural protein, human, UniProt Q14653 1-427, looked up)
chain: B1 chain
notes: not shown: His, N-terminal, kept

Biological target: T1, GST-BLK, prokaryotically expressed and purified (human, UniProt P51451 1-505)
T1 construct: also called purified recombinant BLK; not shown: GST, N-terminal, kept
T1 sequence (P51451 whole entry): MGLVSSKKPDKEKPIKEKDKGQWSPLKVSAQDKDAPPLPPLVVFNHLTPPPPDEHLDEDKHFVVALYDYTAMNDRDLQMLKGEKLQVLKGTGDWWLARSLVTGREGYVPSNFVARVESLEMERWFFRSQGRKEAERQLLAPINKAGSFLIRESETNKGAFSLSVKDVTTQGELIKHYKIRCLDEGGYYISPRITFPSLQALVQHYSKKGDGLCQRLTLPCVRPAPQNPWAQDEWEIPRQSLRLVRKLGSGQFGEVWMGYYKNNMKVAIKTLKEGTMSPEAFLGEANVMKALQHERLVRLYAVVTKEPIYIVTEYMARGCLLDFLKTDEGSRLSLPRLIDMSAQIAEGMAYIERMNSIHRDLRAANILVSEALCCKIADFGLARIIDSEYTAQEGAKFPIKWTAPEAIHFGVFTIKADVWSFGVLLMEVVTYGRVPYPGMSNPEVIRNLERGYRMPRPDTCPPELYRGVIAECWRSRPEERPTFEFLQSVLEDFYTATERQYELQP
Assay: pull-down
Conditions: both partners purified

| Binder | binding result |
| --- | --- |
| B1 | binds |
| B2 | binds |
